# According to patent US9545446B2, “Agonists of guanylate cyclase and their uses” (priority 2013, dated 2017):
# Bridges are numbered along the chain shown (N, C = ends). Where no end group is shown, it is not given here. [ ]: non-standard residue; d: D form.
# Legend:
# intestinal GC-C receptor = intestinal GC-C receptor (Homo sapiens, UniProt P25092); assay: in vitro and in vivo pharmacology studies (GC-C agonism); settings: several in vitro and in vivo pharmacology studies
# [1] = Phase 1 pharmacokinetic sampling (systemic absorption after oral dose); assay type: in vivo, human; settings: oral doses <10 mg
# Procedure: Phase 1 pharmacokinetic sampling indicated no detectable (limit of quantitation=1 ng/mL) systemic absorption of SP-333 following oral doses <10 mg; it is therefore highly unlikely that a single oral dose of 6 mg SP-333 will result in any systemic exposure.
# [2] = tested on: patients scheduled to undergo colonoscopy; assay: Phase 1 pilot clinical study: oral SP-333 as adjunct to SUPREP Bowel Prep Kit for cleansing of the colon prior to colonoscopy; assay type: in vivo, human
# Procedure: This clinical study outlined above was designed to assess the effect of a single oral dose of 6 mg SP-333 when given concurrently with a standard pre-colonoscopy bowel prep—the SUPREP® Bowel Prep Kit (Braintree Laboratories, Braintree, Mass. 02185, USA). The investigator is a highly experienced gastroenterologist and oversaw all study activities and performed all colonoscopies per their usual routine.
# • 1. Take Study Drug approximately 30 minutes before the start of the first bottle of the bowel prep kit. • 2. Take a 6 ounce bottle of study preparation and pour the entire contents into the mixing cup provided. Fill the cup with cool water to the fill line (16 ounces) and drink the entire cup of solution. • 3. Drink two (2) 16 ounce glasses of WATER over the next hour. Fill the mixing cup with water up to the fill line (16 ounces) and drink the entire glass. Morning of Colonoscopy
# At least 3 hours prior to colonoscopy: • 1. Take the second 6 ounce bottle of study preparation and pour the entire contents into the mixing cup provided. Fill the cup with cool water to the fill line (16 ounces) and drink the entire cup of solution. • 2. Drink two (2) 16 ounce glasses of WATER over the next hour. Fill the mixing cup with water up to the fill line (16 ounces) and drink the entire glass. • Patient must complete the solution and additional water at least 2 hours before colonoscopy.
# The primary endpoint of this study was bowel preparation treatment success as determined by the investigator (bowel preparation will be rated by the Investigator as “Excellent”, “Good”, “Fair” or “Poor”). A successful bowel preparation treatment is defined as bowel cleansing graded either “Excellent” or “Good” by the investigator (See Table 10).
# Patients were consented for the study at the same time that informed consent was obtained for the colonoscopy procedure. Each successfully consented & recruited patient took a single dose of 6 mg SP-333 in the evening before the colonoscopy—approximately 30 minutes prior to ingestion of the first bottle of the SUPREP® Bowel Prep Kit (See Section entitled “Patient Instructions for SUPREP® Bowel Prep Kit” above).
# Bowel preparation treatment success rate was described; formal hypothesis testing was not performed.
# The volume of intra-procedural water required to improve visualization, the proximal insertion depth of the colonoscope and whether or not the right colon and cecum were completely visualized were recorded in the Colonoscopy Procedure Record.
# healthy volunteers = assay: Phase I multiple ascending dose study of SP-333; assay type: in vivo, human
# Procedure: […] The maximum tolerated dose was 30 mg with 60 mg deemed an intolerable dose due to 2 instances of fecal incontinence or soiling in the 7 patients dosed with 60 mg SP-333.
# healthy subjects = assay: Phase I single ascending oral dose study of SP-333; assay type: in vivo, human
# Procedure: Two phase 1 clinical studies with SP-333 have been completed to date and a Phase 2 trial in OIC is in progress. In the Phase I single ascending oral dose study, conducted in 64 healthy subjects, the following doses of SP-333 were tested: 0.1, 0.3, 1, 3, 10, 20, 30, and 60 mg. […] Diarrhea was the most common adverse event and was generally dose-related, with 1 mg being the threshold dose. The time to onset of diarrhea was variable but tended to decrease with increasing doses from 4 to 2 hours or less. The number of subjects with watery bowel movement rose from none (<3 mg) to 2 of 6 (3, 10 and 20 mg) to 4 of 6 (30 mg). The majority of these episodes was mild, occurred once, and was associated with urgency and in some cases mild cramping. There were no SAEs.
# [3] = 6 mg SP-333 added to standard colonoscopy cleansing preparation (SUPREP), 9 patients
# [4] = 6 mg oral daily dose, healthy volunteers
# intestinal GC-C receptor, sequence (P25092 24-1073): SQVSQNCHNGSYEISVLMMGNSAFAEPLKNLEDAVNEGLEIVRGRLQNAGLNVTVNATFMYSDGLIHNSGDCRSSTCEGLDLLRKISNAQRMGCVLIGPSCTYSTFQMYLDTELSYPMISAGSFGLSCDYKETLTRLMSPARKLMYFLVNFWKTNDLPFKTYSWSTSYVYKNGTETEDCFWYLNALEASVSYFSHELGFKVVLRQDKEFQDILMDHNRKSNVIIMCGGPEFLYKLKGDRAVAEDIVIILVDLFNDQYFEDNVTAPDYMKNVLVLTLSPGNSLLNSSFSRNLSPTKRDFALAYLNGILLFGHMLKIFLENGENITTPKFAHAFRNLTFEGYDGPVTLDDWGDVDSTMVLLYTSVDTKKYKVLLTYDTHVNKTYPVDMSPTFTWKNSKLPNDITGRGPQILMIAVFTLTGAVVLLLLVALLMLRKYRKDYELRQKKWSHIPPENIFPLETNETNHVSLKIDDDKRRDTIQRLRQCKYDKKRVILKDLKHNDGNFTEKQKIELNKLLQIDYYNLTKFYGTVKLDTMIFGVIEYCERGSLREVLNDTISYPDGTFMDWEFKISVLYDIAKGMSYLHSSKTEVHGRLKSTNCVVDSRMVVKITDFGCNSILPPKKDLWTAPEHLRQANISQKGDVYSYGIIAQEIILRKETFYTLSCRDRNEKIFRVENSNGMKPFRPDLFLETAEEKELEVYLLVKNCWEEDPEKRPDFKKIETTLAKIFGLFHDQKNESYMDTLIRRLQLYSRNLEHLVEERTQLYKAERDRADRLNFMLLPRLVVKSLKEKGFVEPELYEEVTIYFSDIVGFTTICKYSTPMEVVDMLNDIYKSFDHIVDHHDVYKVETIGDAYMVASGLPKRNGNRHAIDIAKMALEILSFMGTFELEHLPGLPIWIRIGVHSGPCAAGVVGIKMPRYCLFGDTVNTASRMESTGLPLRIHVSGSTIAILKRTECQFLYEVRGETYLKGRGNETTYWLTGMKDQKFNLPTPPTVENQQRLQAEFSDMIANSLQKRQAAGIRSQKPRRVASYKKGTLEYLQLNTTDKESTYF
substance,measurement,setting,value
"dAsn^1-Asp^2-Glu^3-Cys^4-Glu^5-Leu^6-Cys^7-Val^8-Asn^9-Val^10-Ala^11-Cys^12-Thr^13-Gly^14-Cys^15-dLeu^16 ([dN]DECELCVNVACTGC[dL]; disulfide 4-12, 7-15) [SP-333]",agonism of the intestinal GC-C receptor,intestinal GC-C receptor,potent agonist
same,systemic absorption (not detectable; limit of quantitation),[1],< 1 ng/mL
same,colonoscopy procedure outcome,[2]; [3],safe and successful procedure
same,visualization of the colon as observed by the gastroenterologist,[2]; [3],better visualization of the entire colon
same,tolerability of combination with standard colonoscopy preparation,"[2]; single oral 6 mg SP-333 evening before colonoscopy plus SUPREP Bowel Prep Kit, 9 patients",very well
same,ease of preparation as judged by subjects with previous colonoscopies,[2]; versus past colon cleansing preparation without SP-333,much easier
same,additional AEs,healthy volunteers; [4],No additional AEs of note
same,effect of dose in Phase 1 studies (basis of dose selection),healthy volunteers; [4],self-limited diarrhea (watery stools) with mild urgency
same,instances of fecal incontinence or soiling,"healthy volunteers; 60 mg daily for 7 days, 7 patients dosed",2
same,"changes in hematology, clinical chemistry, or urinalysis parameters",healthy volunteers; any dose level,no clinically meaningful changes
same,changes in vital sign or ECG parameters,healthy volunteers; any dose level,no clinically meaningful changes
same,overall safety and tolerability,"healthy volunteers; daily 0.3, 1, 3, 10, 30 mg for 14 days or 60 mg for 7 days, 89 subjects",generally safe and well-tolerated
same,maximum tolerated dose,healthy volunteers; daily doses for 14 days,30 mg
same,intolerable dose,"healthy volunteers; daily for 7 days, due to fecal incontinence or soiling",60 mg
same,most commonly reported TEAEs (treatment-emergent adverse events),healthy volunteers; mild or moderate intensity,gastrointestinal disorders (primarily diarrhea and defecation urgency)
same,subjects with a serious adverse event (SAE),healthy volunteers; multiple ascending dose,no subject
same,subjects withdrawn from the study due to a TEAE,healthy volunteers; multiple ascending dose,no subject
same,severity of the majority of watery bowel movement episodes,"healthy subjects; occurred once, associated with urgency, in some cases mild cramping",mild
same,"changes in clinical laboratory test results, ECG or vital signs",healthy subjects; single ascending oral dose,No clinically meaningful changes
same,serious adverse events (SAEs),healthy subjects; single ascending oral dose,no SAEs
same,threshold dose for diarrhea,healthy subjects; single ascending oral dose,1 mg
same,most common adverse event,"healthy subjects; single ascending oral dose, generally dose-related",Diarrhea
same,number of subjects with watery bowel movement,healthy subjects; single oral dose 30 mg,4 of 6
same,number of subjects with watery bowel movement,"healthy subjects; single oral dose 3, 10 and 20 mg",2 of 6
same,number of subjects with watery bowel movement,healthy subjects; single oral dose <3 mg,none
same,overall safety and tolerability,"healthy subjects; single oral doses 0.1, 0.3, 1, 3, 10, 20, 30, 60 mg, 64 healthy subjects",safe and well tolerated
same,time to onset of diarrhea,"healthy subjects; variable, tended to decrease with increasing doses, to 2 hours or less",4 to 2 hours
